Results reported in patent US12421510B2, “Peptide, a complex and a method for treating cancer” (TECHNION RESEARCH & DEVELOPMENT FOUNDATION LIMITED, priority 2018, dated 2025).

Biological target: T1, p105 (Homo sapiens, UniProt P19838)
T1 sequence (P19838 1-968): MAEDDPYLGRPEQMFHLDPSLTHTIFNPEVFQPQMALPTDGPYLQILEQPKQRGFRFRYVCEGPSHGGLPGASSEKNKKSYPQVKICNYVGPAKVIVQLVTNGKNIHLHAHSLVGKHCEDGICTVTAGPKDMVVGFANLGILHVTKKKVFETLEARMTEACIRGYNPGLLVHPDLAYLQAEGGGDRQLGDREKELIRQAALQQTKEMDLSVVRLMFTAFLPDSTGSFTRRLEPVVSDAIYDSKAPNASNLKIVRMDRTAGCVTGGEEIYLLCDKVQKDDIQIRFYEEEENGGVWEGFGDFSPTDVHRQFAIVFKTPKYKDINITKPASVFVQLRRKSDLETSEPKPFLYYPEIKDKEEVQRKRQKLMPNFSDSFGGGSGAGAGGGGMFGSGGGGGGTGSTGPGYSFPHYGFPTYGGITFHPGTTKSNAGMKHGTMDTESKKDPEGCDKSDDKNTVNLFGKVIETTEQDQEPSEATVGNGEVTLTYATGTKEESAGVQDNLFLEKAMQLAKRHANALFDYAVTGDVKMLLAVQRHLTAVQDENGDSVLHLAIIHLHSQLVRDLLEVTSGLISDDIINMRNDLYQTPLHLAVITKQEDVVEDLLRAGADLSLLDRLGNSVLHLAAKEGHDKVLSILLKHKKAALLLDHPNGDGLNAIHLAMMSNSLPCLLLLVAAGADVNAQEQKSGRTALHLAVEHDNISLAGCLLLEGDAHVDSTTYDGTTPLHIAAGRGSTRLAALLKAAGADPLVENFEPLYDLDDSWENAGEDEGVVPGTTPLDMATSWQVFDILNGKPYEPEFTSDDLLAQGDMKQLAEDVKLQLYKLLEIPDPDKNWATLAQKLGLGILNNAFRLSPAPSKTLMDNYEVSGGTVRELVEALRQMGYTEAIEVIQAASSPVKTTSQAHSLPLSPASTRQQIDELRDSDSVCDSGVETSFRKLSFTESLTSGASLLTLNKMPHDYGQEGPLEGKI
Assay: Co-immunoprecipitation (Co-IP) of KPC1 species with p105-HA from transfected HEK293T cells
Assay type: binding
Design: HA; expressed in transfected cells; host or cells: HEK293T
Conditions: anti-FLAG immunoprecipitation, anti-NF-κB1 western blot
Excerpt: FIG. 1B is a western blot showing the following: HEK293T cells were transfected with cDNAs coding for p105-HA (lanes 1-6), along with the different KPC1 species as following: W.T KPC1 (lane 1), KPC1Δ969-1314 (lane 2), KPC1Δ1-438 & 1039-1314 (lane 3), KPC1Δ1-967 (lane 4) and KPC1Δ1-1042 (lane 5). Lane 6 was transfected with an empty vector. KPC1 species were immunoprecipitated using immobilized FLAG antibodies, resolved by SDS-page, and NF-κB1 and KPC1 proteins were visualized by anti-NF-κB1 (FIG. 1B (upper)) and anti-FLAG (FIG. 1B (bottom)) antibodies, respectively. 10% of the total cell lysate was analyzed for the expression of p105-HA.
FIG. 2B is a western blot. HEK293T cells were transfected with cDNAs coding for p105-HA (lanes 1-7), along with different KPC1 species as following: WT KPC1 (lane 1), KPC1Δ1-967 (lane 2), KPC1Δ967-1043 (lane 3), KPC1Δ1-973 (lane 4), KPC1Δ1-1017 (lane 5) and KPC1ΔCC domain (lane 6). Lane 7 represents cells that were transfected with empty vector. KPC1 species were immunoprecipitated using immobilized FLAG antibodies, resolved by SDS-page. NF-κB1 and KPC1 proteins were visualized with anti-NF-κB1 (FIG. 2B (i)) and anti-FLAG (FIG. 2B (ii)) antibodies, respectively. 10% of the total cell lysate was analyzed for the expression of p105-HA. FIGS. 3A and 3B: FIG. 3A is a schematic representation of KPC1 species used in the experiment shown in FIG. 3B that was directed to evaluating the region of KPC1 that is responsible for the interaction with p105.
FIG. 3B is a western blot. HEK293T cells were transfected with cDNAs coding for p105-HA (lanes 1-12), along with different KPC1 species as following: KPC1-FLAG (lane 1), WILVRLW-KPC1 Δ 1-1253 (SEQ ID NO: 8) (lane 2), ILVRLW-KPC1 Δ 1-1253 (SEQ ID NO: 10) (lane 3), LVRLW-KPC1 Δ 1-1253 (SEQ ID NO: 11) (lane 4), VRLW-KPC1 Δ 1-1253 (lane 5) (SEQ ID NO: 12), RLW-KPC1 Δ 1-1253 (lane 6) SEQ ID NO:13), KPC1 Δ 1-1253 (lane 7), WILVRL-KPC1 Δ 1-1253 (lane 8) (SEQ ID NO: 14), WILVR-KPC1 Δ 1-1253 (SEQ ID NO: 15) (lane 9), WILV-KPC1 Δ 1-1253 (SEQ ID NO: 16) (lane 10), WIL-KPC1 Δ 1-1253 (SEQ ID NO: 17 (lane 11). Lane 12 represents cells that were transfected with empty vector. KPC1 species were immunoprecipitated using immobilized FLAG antibodies, resolved by SDS-page. NF-κB1 and KPC1 proteins were visualized by anti-NF-κB1 (FIG. 3B, (i, ii) and anti-FLAG (FIG. 3B, (iii) antibodies, respectively. 10% of the total cell lysate was analyzed for the expression of p105-HA (FIG. 3B, (ii)).
HEK293T cells were transiently transfected with the various KPC1 species along with p105-HA using the j etPEI reagent. 48 hours after transfection, the cells were harvested and lysed with RIPA buffer [150 mM NaCl, 0.5% sodium deoxycholate, 50 mM Tris-HCl (pH 8.0), 0.1% SDS, and 1% NP-40, supplemented with freshly added protease inhibitors mixture]. KPC1 species proteins were immunoprecipitated with immobilized anti-FLAG, with subsequent washing of the beads five times with RIPA buffer. The immunoprecipitated proteins were resolved by SDS-PAGE (10%, FIGS. 1A, 1B, 2A and 2B, with a gel gradient, of 4-20%; FIGS. 3A and 3B), and blotted onto nitrocellulose (FIGS. 1A, 1B, 2A and 2B) or PVDF (FIGS. 3A and 3B) membranes. p105 and KPC1 species were visualized using anti-NF-κB1 or anti-FLAG antibodies, respectively.
Identification of the region of KPC1 that is responsible for the interaction with p105. In order to identify the region of KPC1 that is responsible for the interaction with p105, several truncated segments of the DNA sequence of the KPC1 protein were cloned. The truncated segments were inserted into the pCAGGS expression vector to analyze their interaction with p105 by co-immunoprecipitation (Co-IP) from cells. HEK 293T cells were transfected with cDNAs coding for p105-HA, along with different fragments of KPC1 (FIG. 1A). Species of KPC1 were immunoprecipitated using an immobilized anti-Flag antibody. […]

B1: KPC1Δ1-967: KPC1 species that lacks amino acids 1-967, SEQ ID NO: 5 (protein)
chain: WILVRLWRGCGFGYRYTRLPHLLKTKLEDANLPSLQKPCPSTLLQQHMADLLQQGPDVAPSFLNSVLNQLNWAFSEFIGMIQEIQQAAERLERNFVDSRQLKVCATCFDLSVSLLRVLEMTITLVPEIFLDWTRPTSEMLLRRLAQLLNQVLNRVTAERNLFDRVVTLRLPGLESVDHYPILVAVTGILVQLLVRGPASEREQATSVLLADPCFQLRSICYLLGQPEPPAPGTALPAPDRKRFSLQSYADYISADELAQVEQMLAHLTSASAQAAAASLPTSEEDLCPICYAHPISAVFQPCGHKSCKACINQHLMNNKDCFFCKTTIVSVEDWEKGANTSTTSSAA
interaction with p105 (Co-IP): an interaction was observed

B2: KPC1ΔCC: KPC1 species that lacks the amino acids 1041-1061 (coiled coil domain) (protein)
chain: MASKGAGMSFSRKSYRLTSDAEKSRVTGIVQEKLLNDYLNRIFSSSEHAPPAATSRKPLNFQNLPEHLDQLLQVDNEEEESQGQVEGRLGPSTVVLDHTGGFEGLLLVDDDLLGVIGHSNFGTIRSTTCVYKGKWLYEVLISSQGLMQIGWCTISCRFNQEEGVGDTHNSYAYDGNRVRKWNVTTTNYGKAWAAGDIVSCLIDLDDGTLSFCLNGVSLGTAFENLSRGLGMAYFPAISLSFKESVAFNFGSRPLRYPVAGYRPLQDPPSADLVRAQRLLGCFRAVLSVELDPVEGRLLDKESSKWRLRGQPTVLLTLAHIFHHFAPLLRKVYLVEAVLMSFLLGIVEKGTPTQAQSVVHQVLDLLWLFMEDYEVQDCLKQLMMSLLRLYRFSPIVPDLGLQIHYLRLTIAILRHEKSRKFLLSNVLFDVLRSVVFFYIKSPLRVEEAGLQELIPTTWWPHCSSREGKESTEMKEETAEERLRRRAYERGCQRLRKRIEVVEELQVQILKLLLDNKDDNGGEASRYIFLTKFRKFLQENASGRGNMPMLCPPEYMVCFLHRLISALRYYWDEYKASNPHASFSEEAYIPPQVFYNGKVDYFDLQRLGGLLSHLRKTLKDDLASKANIVIDPLELQSTAMDDLDEDEEPAPAMAQRPMQALAVGGPLPLPRPGWLSSPTLGRANRFLSTAAVSLMTPRRPLSTSEKVKVRTLSVEQRTREDIEGSHWNEGLLLGRPPEEPEQPLTENSLLEVLDGAVMMYNLSVHQQLGKMVGVSDDVNEYAMALRDTEDKLRRCPKRRKDILAELTKSQKVFSEKLDHLSRRLAWVHATVYSQEKMLDIYWLLRVCLRTIEHGDRTGSLFAFMPEFYLSVAINSYSALKNYFGPVHSMEELPGYEETLTRLAAILAKHFADARIVGTDIRDSLMQALASYVCYPHSLRAVERIPEEQRIAMVRNLLAPYEQRPWAQTNWILVRLWRGCGFGYRYTRLPHLLKTKLEDANLPSLQKPCPSTLLQQHMADLLQQGPDVAPSFLNSVLNQLNWAFVDSRQLKVCATCFDLSVSLLRVLEMTITLVPEIFLDWTRPTSEMLLRRLAQLLNQVLNRVTAERNLFDRVVTLRLPGLESVDHYPILVAVTGILVQLLVRGPASEREQATSVLLADPCFQLRSICYLLGQPEPPAPGTALPAPDRKRFSLQSYADYISADELAQVEQMLAHLTSASAQAAAASLPTSEEDLCPICYAHPISAVFQPCGHKSCKACINQHLMNNKDCFFCKTTIVSVEDWEKGANTSTTSSAA
interaction with p105 (Co-IP): An interaction

B3: KPC1Δ1-973: KPC1 species that lacks the amino acids 1-973 (protein, UniProt Q5XPI4 974-1314, looked up, fragment)
chain: WRGCGFGYRYTRLPHLLKTKLEDANLPSLQKPCPSTLLQQHMADLLQQGPDVAPSFLNSVLNQLNWAFSEFIGMIQEIQQAAERLERNFVDSRQLKVCATCFDLSVSLLRVLEMTITLVPEIFLDWTRPTSEMLLRRLAQLLNQVLNRVTAERNLFDRVVTLRLPGLESVDHYPILVAVTGILVQLLVRGPASEREQATSVLLADPCFQLRSICYLLGQPEPPAPGTALPAPDRKRFSLQSYADYISADELAQVEQMLAHLTSASAQAAAASLPTSEEDLCPICYAHPISAVFQPCGHKSCKACINQHLMNNKDCFFCKTTIVSVEDWEKGANTSTTSSAA
interaction with p105 (Co-IP): the interaction between these two proteins was abrogated

B4: KPC1Δ1-1017: KPC1 species that lacks the amino acids 1-1017 (protein, UniProt Q5XPI4 1018-1314, looked up, fragment)
chain: LLQQGPDVAPSFLNSVLNQLNWAFSEFIGMIQEIQQAAERLERNFVDSRQLKVCATCFDLSVSLLRVLEMTITLVPEIFLDWTRPTSEMLLRRLAQLLNQVLNRVTAERNLFDRVVTLRLPGLESVDHYPILVAVTGILVQLLVRGPASEREQATSVLLADPCFQLRSICYLLGQPEPPAPGTALPAPDRKRFSLQSYADYISADELAQVEQMLAHLTSASAQAAAASLPTSEEDLCPICYAHPISAVFQPCGHKSCKACINQHLMNNKDCFFCKTTIVSVEDWEKGANTSTTSSAA
interaction with p105 (Co-IP): did not interact with p105

B5: WILVRLW-KPC1Δ1-1253: KPC1 lacking amino acids 1-1253 with WILVRLW at its N-terminus, SEQ ID NO: 8 (protein)
chain: WILVRLWCPICYAHPISAVFQPCGHKSCKACINQHLMNNKDCFFCKTTIVSVEDWEKGANTSTTSSAA
interaction with p105 (Co-IP): An interaction was observed
